A word on the stoichiometry N: it is the number of molecules, sites or subunits per partner or assembly. Broadly, the Kd is a measure of binding affinity in units of concentration.

Data set [1] deals with the molecule itself. Nature of the data set: SEC; HiLoad 16/600 Superdex 200 pg column, HEPES buffer pH 7.5, calibrated with LMW and HMW protein standards. A general note: Size exclusion chromatography separates by hydrodynamic size, large species first.
Data set [2] concerns the molecule itself. Nature of the data set: AUC; sedimentation velocity, 40000 rpm, 20°C, 8 or 16 μM hPLD3, absorbance at 280 or 290 nm.
In data set [3] the target is T1, hPLD3 luminal domain (Homo sapiens, UniProt Q8IV08 61-490).
T1 sequence: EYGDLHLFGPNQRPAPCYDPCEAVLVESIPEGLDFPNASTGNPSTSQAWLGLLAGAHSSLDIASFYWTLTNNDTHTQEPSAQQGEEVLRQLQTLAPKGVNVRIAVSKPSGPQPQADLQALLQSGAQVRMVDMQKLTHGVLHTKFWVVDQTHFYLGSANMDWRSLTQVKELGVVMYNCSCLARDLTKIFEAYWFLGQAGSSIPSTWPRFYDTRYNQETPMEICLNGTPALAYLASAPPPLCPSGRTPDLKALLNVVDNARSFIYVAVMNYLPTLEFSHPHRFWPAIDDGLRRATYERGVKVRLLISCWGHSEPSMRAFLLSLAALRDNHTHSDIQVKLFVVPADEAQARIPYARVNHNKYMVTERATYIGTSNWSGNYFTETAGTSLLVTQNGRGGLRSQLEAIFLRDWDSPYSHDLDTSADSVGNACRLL
Kind of data set: ITC; ITC: 20 mM HEPES pH 7.5, 150 mM NaCl, 10 C; 380 uM ssDNA in syringe, 10 uM hPLD3 in cell. Crystals: 15% PEG 4000, 0.02 M NaI, 0.9 M ammonium sulfate, 15% glycerol. Particulars: protein: recombinant; tags: C-terminal 6xHis; chain copies: 2; single strand. Background: ITC needs no label: the signal is the heat of the interaction.

The target in data set [4] is T1, hPLD3 luminal domain. Kind of data set: ITC; N = 1.0; dH -12 kcal/mol; no phosphorothioate, cleavable substrate; ITC: 20 mM HEPES pH 7.5, 150 mM NaCl, 10 C; 380 uM ssDNA in syringe, 10 uM hPLD3 in cell. Crystals: 15% PEG 4000, 0.02 M NaI, 0.9 M ammonium sulfate, 15% glycerol. Particulars: protein: recombinant; tags: C-terminal 6xHis; chain copies: 2; single strand.

Data set [5] has as its target T1, hPLD3 luminal domain. Kind of data set: ITC; N = 0.9; dH 30 kcal/mol; ITC: 20 mM HEPES pH 7.5, 150 mM NaCl, 10 C; 380 uM ssDNA in syringe, 10 uM hPLD3 in cell. Crystals: 15% PEG 4000, 0.02 M NaI, 0.9 M ammonium sulfate, 15% glycerol. The note with it: protein: recombinant; tags: C-terminal 6xHis; chain copies: 2; single strand.

B1: luminal domain (residues 61–490) of human PLD3 (domain or fragment, UniProt Q8IV08 61-490, looked up)
chain: T1 sequence
modifications: N-glycosylated (Man5GlcNAc2, high-mannose type) at Asn97, Asn132, Asn236, Asn284 and Asn387, at least partially; Cys300 oxidized to cysteine sulfonic acid (OCS)
notes: human PLD3 (phospholipase D3), luminal domain, residues 61-490, starting directly after the transmembrane segment; In the crystals residues 72–98 and 101–490 are seen, 61–71 and 99–100 are not visible; also called hPLD3; hPLD3_(61-490); source: HEK293S GnTI- stably transfected monoclonal cell line, secreted into culture supernatant, purified (NiNTA, SEC)
On to B1, for which the “stoichiometry N” value in data set [1] worked out at 2; in data set [2], 4.

B2: T*T*C*A*T*G* (ssDNA)
DNA: TTCATG
modifications: phosphorothioate at all linkages (mixed Rp/Sp); printed with * also after the last G
As to B2, the binding result in the data set with hPLD3 luminal domain [3] is listed as “no binding”.

For TTCATG (ssDNA), the Kd in the data set with hPLD3 luminal domain [4] was 20 ± 2 µM.

As to TTCATG (ssDNA, phosphorothioate between nt 1 and 2 (mixed Rp/Sp)) [T*TCATG], the Kd with hPLD3 luminal domain [5] stood at 28 ± 4 µM.

(Values after PMC10783504, “Structural analysis of PLD3 reveals insights into the mechanism of lysosomal 5′ exonuclease-mediated nucleic acid degradation” (Nucleic Acids Research, 2023).)
